Measured values published in the domain aggregation screens of Martell et al. (2025).

Experiment: soluble fraction after stress (log2 fold change); higher = more stays soluble; pooled small domains, quantitative proteomics
Details: stress: 50 degC
Method in brief: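 The measure of aggregation propensity here is the base-two logarithm of the fold change in the soluble amount of each protein after stress. A higher value means more of that protein stays in solution. Stress was applied at 50°C to pooled libraries of small protein domains, read out by high-throughput quantitative proteomics.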

| Sequence | soluble fraction (log2) |
| --- | --- |
| HMSTMTGTVDTPGASLNVRTGAWGPIVGQLAHGSKVTIIGSSGDWFKISYNGATRYVHKNYVNTT | -0.153 |
| HMSTMVEIPNVVGMTIKEAKEALGNLGLSISKISGSNEDSAIVTEVSPAPGSSVKRDESITLVGQPK | 0.0366 |
| HMSTPAKVTPTNPIVKQLFNAAETQIKNKDIQNAIASYEKADTLTTDEKVKQYIHYQLSTLKDDN | -0.14 |
| HMSTPERQEVLDILKRQGEMTPLQIAGQISRTSKSVSNILSKLKREGFVANGAKYGSWVSTES | 0.0492 |
| HMSTPTVDTKTKLDLYNLLYKKDLNYLDAYNFVLDNFGSDNIDIMFKMLGLDFTNWVIENKPE | 0.0375 |
| HMSTQYKTGHYKTTDALNLRASYSTSSNVLLTIPKGKTIVVTRVHNNEWGQVEYNGKTGWIYLEYTAYTES | 0.0697 |
| HMSTSAAELLRTARQQAGMSQSAVAELAKTSQSAIAMYEAGNREPSLPVLQRLLAATGHQLSLSVLP | -0.228 |
| HMSTTILSFQNRVVIETLHNEGRSLRYIANYLGFSKATIFNELHRLNSEYRAELAQADFERKVSQR | -3.59 |
| HMSTVAETVYNEIRDDILYGELQPGVKLKLEALRERYSVGVNTLREVLNRLVASGFVFVEGQKGFRVV | 0.0966 |
| HMSTVEKDSELGGNFRIASYPTGKGQISEAIRSMIVRAKQVGVNIRLNTEATEEPLRALAPNAVILATG | 0.0325 |
| HMSTVELPVQINGKVRGRITVPANAGQEDVKQAALADSKVQRYIEGASIRKVIVVPRKLVNIVV | 0.13 |
| HMSTVTGLINYLSSGLIKGVGEATARKLVDHFGLDVLDIIQFNPQRLLEVDGIGEARAEMIASSFSEQK | -0.399 |
| HMSVDIIPGKADQKVRLIHDPAIVGVTTGGVKTAGPHTLIQIELGPNERPYKRLSLLELIPEG | -0.115 |
| HMSVDVGMQLRKLREERKISMRELARLSGLSANALSMIERGLTSPSVSTLNKLAGALEVPITAFFRI | -0.285 |
| HMSVEVPNLIGKTLDQVDIDLKSLDLSFVILDSARYNSSFKPLSVIDHQPISGAKVKVNRKIYLTINPS | -0.445 |
| HMSVKIELNENEQAIFTAVQKVNEAVLPELRAQFSDMSNKAWDNSVKMLTKNNLLKVSKEGEILYIRM | -0.567 |
| HMSVKSVSLRKISYKVRRGDSLYNIAKNFSLSINDITHWNSINKKSYLQPGQRLTLYINPRN | -1.71 |
| HMSVKVFRDQILLNNDSDKMLQLSFSNLFGQKVLETSISPGKSAISTGNLPPGIYFITTSPATGVMRVII | -1.12 |
| HMSVLRLGNRGPDVRKLQLLLNSTLVPSPQLTVDGDFGKRTEQAVVTFQQMRGLPQDGIVGQRTWALLGQT | -0.518 |
| HMSVLSVASKNQAINPGQVVALLKDGIKLNDDGRVEILDNNNNIRYNEKGNLLSIEERVKEFLDANPHFRQ | -0.368 |
| HMSVLVLPMLKELTHEDREVVELFYLNDMSVREIALIISVPIGTVKSRLHRARAQLKHQIVNLNQ | -3.03 |
| HMSVPVNAPMPGTILDIKVKAGAAVKAGDVVMILEAMKMENEISAPQDGTIASIDVRKGDTVNSGDVLYTM | 0.0456 |
| HMSVSVNAPMPGNILDVRAKTGESIQKGQVIVILEAMKMENEIMAPQDGKISSINTSKGSTVNSGDLLFTM | -0.155 |
| HMSVTMPNLVGLDEQTAVTRINSSNLSYGSTNYVHSDHEAGVVFKQSTPAYTEVDEHTKIYIWVSLGPEE | -0.0912 |
| HMSVTPLLDATEKDKTKYRDLWLVAVVKNGVNYARKYKFGYVYAWLYRHDRDWLLQVNNQHKIPNIT | 0.127 |

| Sequence | soluble fraction (log2) |
| --- | --- |
| HMSVTVMVLRAAGDIQAGTEITDKHLATVEVGEYGLPEGIINDKDSILGKIALTDIAKGDYFFSQKLG | -0.134 |
| HMSVVKPIYIGMMTSEVEAIMGKPFEVITNNNSKNNQLWIYKYQDKRSVMLTFTNYKLIKIE | -0.819 |
| HMSWDNELLERAHKIIELYPQKRSALGPLLYLAQEKDGFISDDSIVEISNLVDITEVQVKSVSSFYSMY | -0.268 |
| HMSWGDVKLTMWGAEEDQTMLREMADAFIEQNADKGNVTIEIGVQSESSAKDTVLADPESAADVFA | 0.00693 |
| HMSWRWVPVSGAYTTSALEAAGLTRAFDDQAAAEEWLGLFFDDLLREGVGEVSLYEEDRLVYGPMSL | -3.1 |
| HMSYANVEWRDFLNSLDEKYRIVVILYYVQGFKTREIAEILQINQSTVRGRLAKAREKLEQQYN | -1.46 |
| HMSYFIFDGVLNLGKQYELKGEESSHITKSRRLRPGDSFLIQDQEGQRFEAILKSFDRNSLIFTPHKPTA | -0.0922 |
| HMSYFNEYEVGDTIRVVNGPLADQISTITAIDKEKGLVNISTVFFGRENNVQVSINDIEKYN | 0.0466 |
| HMSYGDLTGRTVVITGASKGIGARASRVLAQAGASVVGLARSVDELTALKYDLENDGLSFDFG | ≥ 0.62 |
| HMSYKYYSTERPLMPGSFPKPQGNTVLNIENFNDRSYVGKIGREAWGFIEYEKPISPVLLDDYELVAA | 0.0613 |
| HMSYLELENLAEDIKATYDNLSTDLREVFRLSDIEGLSYEEISNKMNIPIGTVRSRLHRARETLLRIFNN | -0.933 |
| HMSYPTAVTQTTLNVRTGPGTQYERLGAFVENTEVIVLTRQPEWIQVRGMSGDKAIIGWVSARYLQMNP | -0.457 |
| HMSYQNKLNYLINAFGGADNFQKLLGVGPSAISNYKSRKHLPLNQAKRLSKIAPQFGFSLDPHSLQIST | -0.377 |
| HMSYQSYDKVVGDTFFEANLKAESKFGKGNFEIISTRRVKHPIYLGFGHKELVELTIGIHDP | -0.308 |
| HMSYTAYLSQELGDMSREIQSELLKKGYNGSSSFTIVRTYMGSSVKFSVYNANNGELITSKTINM | -1.93 |
| HMSYTDIILKMSNVNFLTKVNFTNSEKNKNIKNGNFLIKKGKNRITAAFDYKDNELVISKSNLRNTFL | -0.381 |
| HMTAEVIYVDVGGEVNQPSVVELTDGSRVTDAIAAAGGLTEKADLTDINRAAFVSDGEKIFIPSQEE | -0.0513 |
| HMTAFAGLTPRERDLLELIAQGRDNAQIAATLGVSDKTVRNHITHIFAKLEVETRAQAIVLARNAGFGRA | -0.356 |
| HMTAGYFTRGSHQDEVLRIQGTPSGVNKYSDHEVWNYGLSSVDISLRDRRVTEWNNISGNLKV | -0.152 |
| HMTAKRELILRVFMDSNGKLLSIDDVFMEMRKKRSHRTSKMTVKRAIDLLVDLGLLKEVLFDDDNIKYEYV | -0.0948 |
| HMTALISGNKAMQMLELSRHSFEKIVKDGLLSIVHEGDKKYYEIGEVEAFMGSDTYKELVNGV | -0.345 |
| HMTALSIGTVVRFTGDRHYISSTGDTGYPASPGLAKITSINPGSKHPYHLIHIDNTSNVYGWVNKQDIIT | 0.16 |
| HMTAQLSITLNGETRRAAAGSIADLVRSLELDPAKVAVERNGLIVPRSTLAEVALGDGDVLEIVHFV | -0.186 |
| HMTASTLSYSKFNEQVVQNQVRKVTFQGEQVKGELISGQTFTTTVPANDTTLWPMLKAHNVDTAVTAA | 0.229 |
| HMTASVTDAMFELIDELPKLGKTSFRQLTADLVDRLQVVVTFLAVLELYKQGHVELDQSERFGDITVVWTG | -0.0255 |

| Sequence | soluble fraction (log2) |
| --- | --- |
| HMTATIEEVNELTQSARVNINVPYAAKDEAKAYGAKWDDVERTWYTTGENYAQNKDFFDGFNPTAS | 0.156 |
| HMTATWLTYYRIKAGLTQKRLAELAGLNIRQVQKIENGETLAGNTTAKNLLALADALGIDPHKL | -2.05 |
| HMTAYENSIPLNWVIQKGDAKGLPLSANTARLLIDIVGIDLMDLDHELEKISLYLSGESITEEMIKEHIRG | -0.668 |
| HMTDAELDLLTPREQEVLQLIARGYLYKEIARRLGISVKTVEAHASSVLRKLQLSTRHELSHWAAQRH | -0.258 |
| HMTDAYEVLDLNREASDEEIKKRYRELIREHHPDTLIAKGVPQEFVDLANDKMAAINAAYDRIEKDRGL | 0.279 |
| HMTDEEKENLREKMLEAGFPLLKQYGMTHTSVAKITQAAGIAVGTFYSFWKNKEAYMADLIGYHRR | -0.818 |
| HMTDITSAITRLNKYNKSGTPLTIDSVTPEALQTLQAKVSSAFEIGAVNQQTYDDVTKDIATLQQYLSSA | 0.15 |
| HMTDIVPNLIGKSLKDAIQSVEKSNLKAIFDGHGIVVSQQPRPGSPIPARKIMKVTLSPDYR | 0.011 |
| HMTDKLEEEAKKKAMEDALADEMNISKTIVHDGIRELARIGFLDVISRKGIYVADYTFTGNLETLLAVIRY | -0.926 |
| HMTDLDDFAARLKTLTDGRASTPRLRDGVMMLSLDVGGLGPDQRDGLIAAIREGGLTVPGVSDVRIVMT | 0.0757 |
| HMTDLEDDEKKVYRLIVESGEGIDFDTLSERSGFSATELPSILLFLMMKEMIDELPGKIYRYSE | 0.0814 |
| HMTDMYLTYQELRHLGVSQNLISMWKSRKSIDFHMLGGTLYVRYMSIPEQTRSKLALQNVERVYNSRE | -2.55 |
| HMTDRINIGDVVTIISKDREDSQIVYMRYHKGKLSILGELILNKTKNDTVDFKGRTYDIATIEKS | -1.83 |
| HMTDVHFIDVPVSEGHPWIGLTVKDLNLPPGTLLVFLNHPGEKSTVPNGDTVLREGDVLVLGATAYAG | -0.0795 |
| HMTDYKTNLQEFLQQDGEVEIEYKLLAEVGPSHARQFEVDVMMGDRVLGSGVGRNKKAAEQAAAKVALSKL | -0.124 |
| HMTDYVPTIGTKISKDFGSKGYFEGEVVSGPHNVTVEGDNMVVWKVQYEDGDREEMTASEIAHWKA | -0.105 |
| HMTEAIDVPNLVGQNYSDVKSNSSYKFNWDIINVYDSGKPEGEIIKQEPEAGSKKVKENAVITLTVN | 0.278 |
| HMTEDNDLETIAYDILKERNLNNININVKNGVLNIYGKTETLKEKREIEKILSSLNVSKINNLIKI | 0.315 |
| HMTEDQDWAIFKQKLKAQTEIDLDLYKEPQMKHRIKNLIQNAGFDSYVQYFDYVYLNQDRLAAFLENLTV | 0.0704 |
| HMTEEELLERLDAVITEYKGKPGALIPVLQLAQGIFGYLPEVALKHIARQLDKPYSEVAGVVSFYSFFTT | 0.0488 |
| HMTEFDVIMKSFGSEKIKVIKEVRAITGLGLAEAKALVEGVPAKIKEQVSKDDAEALKKQLEAVGAEVEL | 0.0379 |
| HMTEFWTGPITTVTKANFADWTLDTNQDRITANVWLTRADSKGLFNITPGKETAFDIVDYLSPLDTEWA | -0.188 |
| HMTEGDRLARRILRLVRNKPNGYPEVELMKATVLDWNHFQRSISSLEMAGILERRDPGDGTPPVWVEKR | -0.688 |
| HMTEKIEWYKEVLDLEPNSKIFFPLAKMLEKEGELEEARRVLAEGVSRHEEFLEARLFYISVLSRL | -0.169 |
| HMTENLELLATGSLWTEPDGSGKIISYLIPGLRVKKLETNGIFYKIQLQNGLIGWADQSLFTIAEPK | -0.0642 |
